The results in this text go back to publication PMC7043357.

The data set has as its target T1, Rop (UniProt P03051 1-63).
T1 sequence: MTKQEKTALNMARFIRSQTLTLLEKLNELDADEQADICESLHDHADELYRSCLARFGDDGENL
Kind of data set: EMSA.

B1: RNA1-U6/RNA2-WT kissing dimer (structured_RNA)
RNA 1: GGCAGCUUUUUUUUGGUAGUUUUUUGCUGCC
RNA 2: GCACCGCUACCAACGGUGC
B1: the binding result is recorded as “binds”.
